This note sets out measurements from paper PMC3711744 (The Journal of neuroscience : the official journal of the …, 2013).

Common to all, as to assay: pull-down
In assay [1] the target is T1, His-tagged CaMKIIα-FL(M1-H478) (UniProt P11275 1-478).
In a further assay the target is GST-CaMKIIα-FL(M1-H478) (UniProt P11275 1-478).
The target in assay [2] is T1, His-tagged CaMKIIα-FL(M1-H478). This is another data set of the same source.
Assay [3] has as its target T286-autophosphorylated CaMKIIα (UniProt P11275 1-478, phosphothreonine at 286 (autophosphorylation)).

Read-outs that look alike come from different tables or passages of the source.

T1 sequence (P11275 whole entry): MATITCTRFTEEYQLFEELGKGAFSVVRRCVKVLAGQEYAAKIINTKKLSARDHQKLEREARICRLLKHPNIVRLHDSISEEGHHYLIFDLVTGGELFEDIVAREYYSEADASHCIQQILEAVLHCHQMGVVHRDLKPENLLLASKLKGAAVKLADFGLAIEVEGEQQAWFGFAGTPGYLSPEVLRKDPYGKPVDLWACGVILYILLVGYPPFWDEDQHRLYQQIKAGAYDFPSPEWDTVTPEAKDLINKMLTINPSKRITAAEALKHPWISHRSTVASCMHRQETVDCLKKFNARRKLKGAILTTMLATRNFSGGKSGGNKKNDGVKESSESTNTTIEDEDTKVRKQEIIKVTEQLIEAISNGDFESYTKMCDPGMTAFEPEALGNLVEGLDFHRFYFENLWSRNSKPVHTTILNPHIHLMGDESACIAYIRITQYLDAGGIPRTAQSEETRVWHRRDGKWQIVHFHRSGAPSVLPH
Chain of T286-autophosphorylated CaMKIIα (P11275 whole entry): as above
Chain of GST-CaMKIIα-FL(M1-H478) (P11275 whole entry): as above

B1: GST-mGluR1a-CT-FL(K841-L1199) (domain or fragment, rat, UniProt P23385 841-1199, looked up)
chain: KPERNVRSAFTTSDVVRMHVGDGKLPCRSNTFLNIFRRKKPGAGNANSNGKSVSWSEPGGRQAPKGQHVWQRLSVHVKTNETACNQTAVIKPLTKSYQGSGKSLTFSDASTKTLYNVEEEDNTPSAHFSPPSSPSMVVHRRGPPVATTPPLPPHLTAEETPLFLADSVIPKGLPPPLPQQQPQQPPPQQPPQQPKSLMDQLQGVVTNFGSGIPDFHAVLAGPGTPGNSLRSLYPPPPPPQHLQMLPLHLSTFQEESISPPGEDIDDDSERFKLLQEFVYEREGNTEEDELEEEEDLPTASKLTPEDSPALTPPSPFRDSVASGSSVPSSPVSESVLCTPPNVTYASVILRDYKQSSSTL
With B1, in assay [1], the binding result is listed as “binds”.

B2: purified mGluR1a-CT (domain or fragment, rat, UniProt P23385 841-1199, looked up)
chain: KPERNVRSAFTTSDVVRMHVGDGKLPCRSNTFLNIFRRKKPGAGNANSNGKSVSWSEPGGRQAPKGQHVWQRLSVHVKTNETACNQTAVIKPLTKSYQGSGKSLTFSDASTKTLYNVEEEDNTPSAHFSPPSSPSMVVHRRGPPVATTPPLPPHLTAEETPLFLADSVIPKGLPPPLPQQQPQQPPPQQPPQQPKSLMDQLQGVVTNFGSGIPDFHAVLAGPGTPGNSLRSLYPPPPPPQHLQMLPLHLSTFQEESISPPGEDIDDDSERFKLLQEFVYEREGNTEEDELEEEEDLPTASKLTPEDSPALTPPSPFRDSVASGSSVPSSPVSESVLCTPPNVTYASVILRDYKQSSSTL
Regarding B2, the binding result with GST-CaMKIIα-FL(M1-H478) is reported as “binds”.
As for KPERNVRSAFTTSDVVRMHVGDGKLPCRSNTFLNIFRRKKPGAGN (domain or fragment, rat, UniProt P23385 841-885, looked up) [GST-mGluR1a-CT1a(K841-N885)], the binding result in assay [1] is reported as “binds”.
KLPCRSNTFLNIFR [mGluR1a-i (14-amino acid interfering peptide)]: the binding result in assay [2] is recorded as “binds”.

B3: GST-mGluR1a-CT1(K841-T1000) (domain or fragment, rat, UniProt P23385 841-1000, looked up)
chain: KPERNVRSAFTTSDVVRMHVGDGKLPCRSNTFLNIFRRKKPGAGNANSNGKSVSWSEPGGRQAPKGQHVWQRLSVHVKTNETACNQTAVIKPLTKSYQGSGKSLTFSDASTKTLYNVEEEDNTPSAHFSPPSSPSMVVHRRGPPVATTPPLPPHLTAEET
Consider B3, for which the binding result in assay [2] and in assay [3] was “binds” throughout.
